Measurements as given in paper doi:10.1101/463968, “Structure of a bacterial ATP synthase” (bioRxiv, 2018).

Key:
Assay in all cases: cryo-EM structure; intact Bacillus PS3 ATP synthase in GDN, three rotational states at 2.9, 2.9 and 3.1 Å; focused refinement of the membrane-embedded region at 3.3 Å
[1] = target: T1, Bacillus PS3 ATP synthase subunit γ (Bacillus PS3, UniProt P09222 5-286); conditions: both partners purified
T1 construct: ATP synthase subunit gamma, Bacillus PS3; source: E. coli strain DK8, plasmid pTR-ASDS; purified as part of the whole ATP synthase (GDN, HisTrap HP, Superose 6)
T1 sequence (P09222 5-286): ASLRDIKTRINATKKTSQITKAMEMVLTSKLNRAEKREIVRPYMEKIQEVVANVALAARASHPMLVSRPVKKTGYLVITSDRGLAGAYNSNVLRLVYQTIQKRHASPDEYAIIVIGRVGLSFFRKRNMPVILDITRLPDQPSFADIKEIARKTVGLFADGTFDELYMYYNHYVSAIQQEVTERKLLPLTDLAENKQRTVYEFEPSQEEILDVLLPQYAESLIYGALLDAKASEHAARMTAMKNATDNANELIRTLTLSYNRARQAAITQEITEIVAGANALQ

[2] = target: T2, Bacillus PS3 ATP synthase subunit α (Bacillus PS3, UniProt P09219 1-502); conditions: both partners purified
T2 construct: ATP synthase subunit alpha, Bacillus PS3; three copies in the complex (α3β3γδε ab2c10); Part of the intact complex α3β3γδε ab2c10; also called αDP; source: E. coli strain DK8, plasmid pTR-ASDS; purified as part of the whole ATP synthase (GDN, HisTrap HP, Superose 6)
T2 sequence (P09219 whole entry): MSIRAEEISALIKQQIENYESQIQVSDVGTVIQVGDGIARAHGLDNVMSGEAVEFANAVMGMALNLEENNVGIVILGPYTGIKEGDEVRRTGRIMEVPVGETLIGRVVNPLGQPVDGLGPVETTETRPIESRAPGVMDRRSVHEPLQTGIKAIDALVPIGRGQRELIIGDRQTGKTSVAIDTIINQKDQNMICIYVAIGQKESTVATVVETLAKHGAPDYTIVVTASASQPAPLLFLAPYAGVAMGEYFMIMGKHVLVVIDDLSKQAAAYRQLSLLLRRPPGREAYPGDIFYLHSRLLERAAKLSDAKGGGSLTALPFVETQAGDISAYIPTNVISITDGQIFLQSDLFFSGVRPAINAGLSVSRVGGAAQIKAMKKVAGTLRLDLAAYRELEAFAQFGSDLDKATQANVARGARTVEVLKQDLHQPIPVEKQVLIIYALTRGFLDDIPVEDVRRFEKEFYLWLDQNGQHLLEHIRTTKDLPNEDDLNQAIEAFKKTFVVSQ

[3] = target: the molecule itself

B1: Bacillus PS3 ATP synthase subunit ε (natural protein, UniProt P07678 1-132, looked up)
chain: MKTIHVSVVTPDGPVYEDDVEMVSVKAKSGELGILPGHIPLVAPLEISAARLKKGGKTQYIAVSGGFLEVRPDNVTILAQAAERAEDIDVLRAKARKSGRTPLQSQQDDIDFKRAELALKRAMNRLSVAEMK
notes: ATP synthase subunit epsilon, Bacillus PS3; source: E. coli strain DK8, plasmid pTR-ASDS; purified as part of the whole ATP synthase (GDN, HisTrap HP, Superose 6)
binding result [1]: binds | binding result [2]: binds

B2: Bacillus PS3 ATP synthase subunit c (natural protein, UniProt P00845 1-72, looked up)
chain: MSLGVLAAAIAVGLGALGAGIGNGLIVSRTIEGIARQPELRPVLQTTMFIGVALVEALPIIGVVFSFIYLGR
notes: ATP synthase subunit c, Bacillus PS3; ring of ten copies; also called c-ring; c10; source: E. coli strain DK8, plasmid pTR-ASDS; purified as part of the whole ATP synthase (GDN, HisTrap HP, Superose 6); copies: 10
stoichiometry N [3]: 10
